Earlier results, collected in patent US4150121A, “Kinin containing injection composition” (THERA Gesellschaft fur Patentverwertung mbH, priority 1976, dated 1979).
Where a SMILES comes first, the peptide text is derived from it.

Details: intracutaneous injection

Compound	amount causing vehement pain reactions
kallidin: decapeptide kinin: Brady kinin extended at the amino end by an additional lysine residue	about 0.1 microgram in 1 milliliter of solution
NC(N)=NCCC[C@H](NC(=O)[C@H](Cc1ccccc1)NC(=O)[C@@H]1CCCN1C(=O)[C@H](CO)NC(=O)[C@H](Cc1ccccc1)NC(=O)CNC(=O)[C@@H]1CCCN1C(=O)[C@@H]1CCCN1C(=O)[C@@H](N)CCCN=C(N)N)C(=O)O [Bradykinin, (NH2) arginine - proline - proline -glycine - phenylalanine - serine - proline - phenylalanine - arginine (COOH)] (H-RPPGFSPFR-OH)	about 0.1 microgram in 1 milliliter of solution
